Paper PMC10240976 (Autophagy, 2022)

B1: LIR(FUNDC1)-GFP (domain or fragment)
chain: PQDYESDDDSYEVLDLTEYARRHQW
notes: source: HKO HeLa cells, transfected, in cells; not shown: GFP, C-terminal, kept
B2: LIR(BNIP3)-GFP (domain or fragment)
chain: GMQEESLQGSWVELHFSNNGNGGSV
notes: as for B1
B3: LIR(4B)-GFP (domain or fragment)
chain: ERFFDSEDEDFEILSL
notes: also called ATG4B (4B); source: HKO HeLa cells, transfected, in cells; not shown: GFP, C-terminal, kept
B4: LIR(ULK2)-GFP (domain or fragment)
chain: SKNSSCDTDDFVLVPHNISSDHSCD
notes: as for B1
B5: LIR(ULK1)-GFP (domain or fragment)
chain: SKDSSCDTDDFVMVPAQFPGDLVAE
notes: as for B1
B6: LIR(UBR4)-GFP (domain or fragment)
chain: QEQSEVDHGDFEMVSESMVLETAEN
notes: as for B1
B7: LIR(ATG4C)-GFP (domain or fragment)
chain: KQLKRFSTEEFVLL
notes: as for B1
B8: LIR(JMY)-GFP (domain or fragment)
chain: FALEETLESDWVAVRPHVFDEREKH
notes: as for B1
B9: LIR(ATG4A)-GFP (domain or fragment)
chain: QLEEFDLEEDFEILSV
notes: as for B1
B10: LIR(ATG4D)-GFP (domain or fragment)
chain: LRAKRPSSEDFVFL
notes: as for B1
B11: LIR(TBC1D25)-GFP (domain or fragment)
chain: PSEDSPLLEDWDIISPKDVIGSDVL
notes: as for B1
B12: LIR(St)-GFP (domain or fragment)
chain: NSQDRVDHEEWEMVPRHSSWGDVGV
notes: also called STBD1 (St); source: HKO HeLa cells, transfected, in cells; not shown: GFP, C-terminal, kept
B13: LIR(TP53INP1)-GFP (domain or fragment)
chain: PEFNEKEDDEWILVDFIDTCTGFSA
notes: as for B1
B14: LIR(TP)-GFP (domain or fragment)
chain: FVSEEDEVDGWLIIDLPDSYAAPPS
notes: also called TP53INP2 (TP); source: HKO HeLa cells, transfected, in cells; not shown: GFP, C-terminal, kept
B15: LIR(WDFY3/ALFY)-GFP (domain or fragment)
chain: DQLSLDEKDGFIFVNYSEGQTRAHL
notes: as for B1
B16: LIR(PLEKHM1)-GFP (domain or fragment)
chain: QKVRPQQEDEWVNVQYPDQPEEPPE
notes: as for B1
B17: LIR(TP[T]) peptide (peptide)
peptide: DGTLIIDLPDSY
notes: also called TP53INP2 peptide; source: synthetic peptide (Cosmo Bio), purified by SEC

target: T1, mRFP-GABARAPL1 (UniProt Q9H0R8 1-117); assay: recruitment of LIR-GFP or gProbe to mRFP-mATG8-containing autophagic membranes (A:C ratio), microscopy; LIR(X)-GFP or gProbe-X co-expressed with one mRFP-mATG8 in HKO HeLa cells; 100 nM BafA1 in EBSS for 2 h; fixed in 4% PFA; autophagosome:cytosol GFP ratio normalized to GFP-expressing cells; conditions: partners not purified
T1 construct: also called membrane-anchored GABARAPL1
T1 sequence (Q9H0R8 whole entry): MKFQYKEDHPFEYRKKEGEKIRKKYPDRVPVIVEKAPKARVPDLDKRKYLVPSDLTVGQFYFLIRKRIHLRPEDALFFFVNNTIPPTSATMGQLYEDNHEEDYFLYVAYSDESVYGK

normalized A:C ratio | Binder
1.96 | B1
1.45 | B2

target: T1, mRFP-GABARAPL1; assay: recruitment of LIR-GFP or gProbe; design: unit not given here; conditions: partners not purified

other | Binder
2.19 | B3
2.5 | B4
1.58 | B5
2.81 | B6
2.93 | B7
1.46 | B8
2.18 | B9
2.65 | B10
1.41 | B11
5.08 | B12
2.43 | B13
5 | B14
3.06 | B15
1.86 | B16

target: LC3A (purified, for ITC); assay: ITC; conditions: both partners purified

Kd [µM] | Binder
> 132 | B17
